Measured values as given in PMC11616004, “Metabolite phosphatase from anhydrobiotic tardigrades” (The Febs Journal, 2024).

Key:
DRB0118 = target: T1, DRB0118 (Deinococcus radiodurans, UniProt Q9RZK8); experiment: malachite green phosphate release; format: biochemical; details: 1 mM substrate, 20 mM Tris-HCl pH 8.0, 37 °C, 1 h; MBP fusion
T1 construct: gene DR_B0118; residues 58-337, signal peptide removed; N-terminal MBP fusion kept, 6xHis cut by TEV; codon-optimized, E. coli BL21(DE3); mainly dimer in solution
T1 sequence (Q9RZK8 58-337): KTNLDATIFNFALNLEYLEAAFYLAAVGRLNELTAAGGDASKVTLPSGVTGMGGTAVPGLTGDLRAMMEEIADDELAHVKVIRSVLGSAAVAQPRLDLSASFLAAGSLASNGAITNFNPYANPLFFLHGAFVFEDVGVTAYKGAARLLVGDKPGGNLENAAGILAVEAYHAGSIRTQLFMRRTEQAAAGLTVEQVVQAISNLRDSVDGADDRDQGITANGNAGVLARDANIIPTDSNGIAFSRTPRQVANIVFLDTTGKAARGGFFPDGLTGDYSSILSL

[1] = target: the molecule itself; experiment: crystal structure; sitting-drop vapor diffusion at 20 °C, RvFeMP‐1 at 10 mg/mL; conditions A (MES pH 6.0, PEG 20000), B (MgCl2, Tris–HCl pH 8.2, PEG 4000) and C (sodium thiocyanate, sodium acetate pH 4.0, PEG4000); dimer of two protomers
[2] = target: the molecule itself; experiment: native gel or EMSA; high‐resolution clear native PAGE of the purified sample (EzApply Native, EzStandard Native, EzRun ClearNative, ATTO)

O=[N+]([O-])c1ccc(OP(=O)(O)O)cc1 [pNPP, p-nitrophenyl phosphate]
activity (nmol/min/mg) (DRB0118): can also function as a phosphatase and the activity toward pNPP was higher

B1: RvFeMP‐1 (Ramazzottius varieornatus Ferritin‐like metabolite phosphatase 1), residues 21–316 (enzyme)
chain: GGNRGMSRNQDAYAEKMDMTLDALNFLLGVEHLASAFYVQAVNNFTADDFKAAGLAQRDYDQFVGVRNNEVDHRDTLISVIKSLGGKPNPPCKYTFPVTDVASVLKVSRTLENADKPAYLGALRDIKSVELRTSVQGALSGDSAHAAFFAYLTGKAPAPGPVDGPLTQRHIATLAQDFIVSCPYPAPKPFPKLTLSPQSGPVGTVVATTCAQDVDTNGVMCAIISGNQGTLMQRPGQAKDGSGAATCTIPPGVKGILFIAWVRGRDVLNVGVDDSSTVCGPNYFLLSALGDAVPGV
notes: RvFeMP‐1 (RvY_06210 product) of Ramazzottius varieornatus strain YOKOZUNA‐1, residues 21–316, without the predicted 20-residue secretory signal peptide; After TEV cleavage one G of the recognition site probably stays at the N-terminus (surmised); also called RvY_06210 product; Tar‐fer; source: E. coli Shuffle T7, purified (HiTrap TALON, TEV protease, HisTrap flowthrough, Superdex 200 SEC); not …
binding result [1]: binds

B2: MBP‐DRB0118 (DRB0118 residues 58–337 fused to maltose‐binding protein) (enzyme, Deinococcus radiodurans R1)
chain: T1 sequence (Q9RZK8 58-337)
notes: DRB0118 of Deinococcus radiodurans R1, residues 58–337, without the signal peptide region; codon-optimised synthetic DNA; The MBP carrier (amplified from pMAL‐c5X) stands N-terminal of DRB0118 and was kept; After TEV cleavage one G of the site probably stays before MBP (surmised); source: E. coli BL21(DE3), purified (HiTrap TALON, TEV protease, HisTrap flowthrough, Superdex 200 SEC); not shown: …
stoichiometry N [2]: 2
